This note sets out measurements from article PMC8910618, “Cognate DNA Recognition by Engrailed Homeodomain Involves A Conformational Change Controlled via An Electrostatic-Spring-Loaded Latch”.

Common to all, as to settings: protein: recombinant; tags: none (untagged, or SUMO/His tag cleaved by ULP1); 15N or 13C,15N labelled for NMR; 5' overhang 1 nt on each strand, 20 bp
Data set [1] has as its target T1, engrailed homeodomain (enHD) (UniProt P02836 456-509).
T1 sequence: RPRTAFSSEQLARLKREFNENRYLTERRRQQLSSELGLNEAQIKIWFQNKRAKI
The data set can be described thus: NMR titration (1H-15N HSQC, R456 side-chain NH); 700 mM NaCl, 20 mM acetate pH 4, 298 K; NMR: 200 uM enHD, 298 K, 5% D2O; 20 mM MES pH 6 + 25 mM NaCl; 20 mM acetate pH 4 + 300 or 700 mM NaCl; 25 mM phosphate pH 6.8 + 50 mM NaCl. CD: 15 uM enHD and DNA, 20 mM MES pH 6, 25 mM NaCl, room temperature.

Data set [2] concerns the target T1, engrailed homeodomain (enHD). The experiment in a line: NMR titration (1H-15N HSQC, A460 and A507); 300 mM NaCl, 20 mM acetate pH 4, 298 K; NMR: 200 uM enHD, 298 K, 5% D2O; 20 mM MES pH 6 + 25 mM NaCl; 20 mM acetate pH 4 + 300 or 700 mM NaCl; 25 mM phosphate pH 6.8 + 50 mM NaCl. CD: 15 uM enHD and DNA, 20 mM MES pH 6, 25 mM NaCl, room temperature.
Data set [3] has the same target. The experiment in a line: NMR titration (1H-15N HSQC, W501 and A460); 50 mM NaCl, 25 mM phosphate pH 6.8, 298 K; stated as sub-uM, too tight to evaluate Kd; NMR: 200 uM enHD, 298 K, 5% D2O; 20 mM MES pH 6 + 25 mM NaCl; 20 mM acetate pH 4 + 300 or 700 mM NaCl; 25 mM phosphate pH 6.8 + 50 mM NaCl. CD: 15 uM enHD and DNA, 20 mM MES pH 6, 25 mM NaCl, room temperature.

Broadly, the Kd is a measure of binding affinity in units of concentration.

B1: cognate DNA (same as X-ray structure) (dsDNA)
DNA 1: TTTTGCCATGTAATTACCTAA
DNA 2: ATTAGGTAATTACATGGCAAA
As for B1, the Kd in data set [1] was 170 ± 2 µM; in data set [2] it was 95 ± 20 µM; in data set [3] it was less than 1 µM.
